# Data: patent publication US20170224836A1 (Novartis, published 2017)
# Where two headings read alike, the source gives them in different places.
# Tests used:
# [1] = biological target: T1, human CDH6 on cells (human, UniProt P55285 54-790); test: cell-based or functional assay
# T1 sequence: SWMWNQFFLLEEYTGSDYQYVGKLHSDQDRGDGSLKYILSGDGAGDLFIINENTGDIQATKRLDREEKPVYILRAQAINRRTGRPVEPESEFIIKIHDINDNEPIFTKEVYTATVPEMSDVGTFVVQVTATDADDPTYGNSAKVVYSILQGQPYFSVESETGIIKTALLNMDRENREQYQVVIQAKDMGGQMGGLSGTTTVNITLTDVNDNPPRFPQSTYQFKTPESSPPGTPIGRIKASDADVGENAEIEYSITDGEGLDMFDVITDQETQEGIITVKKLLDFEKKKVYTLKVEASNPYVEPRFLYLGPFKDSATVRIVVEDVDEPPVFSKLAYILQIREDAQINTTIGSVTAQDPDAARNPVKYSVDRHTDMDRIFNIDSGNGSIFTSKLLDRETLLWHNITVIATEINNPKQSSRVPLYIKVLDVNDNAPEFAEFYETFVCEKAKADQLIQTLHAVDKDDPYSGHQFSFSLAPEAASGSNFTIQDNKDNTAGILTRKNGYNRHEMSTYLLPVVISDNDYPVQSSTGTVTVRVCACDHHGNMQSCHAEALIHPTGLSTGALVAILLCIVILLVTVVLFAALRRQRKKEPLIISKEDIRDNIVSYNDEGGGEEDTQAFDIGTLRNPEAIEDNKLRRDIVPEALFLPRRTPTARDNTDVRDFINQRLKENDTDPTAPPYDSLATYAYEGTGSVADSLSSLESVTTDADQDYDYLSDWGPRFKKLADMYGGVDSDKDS
# [2] = biological target: T1, human CDH6 on cells; test: cell-based or functional assay; remark: listed apart in the source
# [3] = biological target: T2, hCDH6aa54-615 APPavi (human, UniProt P55285 54-615); test: SPR binning
# T2 sequence: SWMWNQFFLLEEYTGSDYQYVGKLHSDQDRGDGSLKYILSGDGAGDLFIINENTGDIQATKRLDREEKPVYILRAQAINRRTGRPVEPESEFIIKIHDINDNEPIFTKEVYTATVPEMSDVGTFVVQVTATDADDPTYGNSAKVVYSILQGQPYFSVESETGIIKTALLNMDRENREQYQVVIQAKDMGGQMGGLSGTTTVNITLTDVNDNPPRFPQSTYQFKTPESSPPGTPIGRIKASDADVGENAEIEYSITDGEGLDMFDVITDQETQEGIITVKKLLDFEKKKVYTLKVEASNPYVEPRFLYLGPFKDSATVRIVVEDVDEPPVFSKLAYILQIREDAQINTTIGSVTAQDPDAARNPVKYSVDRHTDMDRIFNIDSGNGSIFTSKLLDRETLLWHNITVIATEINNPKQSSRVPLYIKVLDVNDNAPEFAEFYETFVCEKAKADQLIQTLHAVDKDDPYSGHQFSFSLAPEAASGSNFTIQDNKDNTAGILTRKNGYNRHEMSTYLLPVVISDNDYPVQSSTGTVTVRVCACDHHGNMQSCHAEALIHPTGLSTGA
# [4] = biological target: T2, hCDH6aa54-615 APPavi; test: SPR binning; remark: listed apart in the source
# [5] = biological target: T2, hCDH6aa54-615 APPavi; test: SPR binning; remark: listed apart in the source
# [6] = biological target: T2, hCDH6aa54-615 APPavi; test: SPR binning; remark: listed apart in the source
# [7] = biological target: T2, hCDH6aa54-615 APPavi; test: SPR binning; remark: listed apart in the source
# [8] = biological target: T2, hCDH6aa54-615 APPavi; test: SPR binning; remark: listed apart in the source
binder,measurement,setting,value
"NOV0718-SMCC-DM1 (antibody, human IgG1, lambda, V domains shown, SMCC-DM1 on primary amines, sites not stated) VH: QVQLVESGGGLVKPGGSLRLSCAASGFTFNSYALHWVRQAPGKGLEWVGRIKSKTNGGTTDYAAPVKGRFTISRDDSKNTLYLQMNSLKTEDTAVYYCARVDATYSYSGYYYPMDYWGQGTLVTVSS VL: DIELTQPPSVSVSPGQTASITCSGDKIPTYTVHWYQQKPGQAPVLVIYDDNKRPSGIPERFSGSNSGNTATLTISGTQAEDEADYYCQSTASGTVVFGGGTKLTVLG","percent inhibition at 1.22 nM ADC, JHOS4 cells",[1],-5.03%
same,"percent inhibition at 1.22 nM ADC, KNS42 cells",[1],3.5%
same,"percent inhibition at 1.22 nM ADC, NCIH661 cells",[1],2.51%
same,"percent inhibition at 1.22 nM ADC, OVCAR3 cells",[1],-3.8%
same,"percent inhibition at 1.22 nM ADC, SNU8 cells",[1],3.35%
"NOV0712-SMCC-DM1 (antibody, human IgG1, kappa, V domains shown, SMCC-DM1 on primary amines, sites not stated) VH: QVQLLESGGGLVQPGGSLRLSCAASGFTFSSHGMHWVRQAPGKGLEWVSVISGSGSNTGYADSVKGRFTISRDNSKNTLYLQMNSLRAEDTAVYYCARQWGSYAFDSWGQGTLVTVSS VL: DIQMTQSPSSLSASVGDRVTITCRASQSISSYLNWYQQKPGKAPKLLIYAVSTLQSGVPSRFSGSGSGTDFTLTISSLQPEDFATYYCQQSGTFPPTTFGQGTKVEIKR","Amax (%), inhibition of proliferation, OVCAR3 cells",[2],88%
same,"Amax (%), inhibition of proliferation, OVCAR8 (engineered CDH6+) cells",[2],95%
same,"IP [nM], inhibition of proliferation, OVCAR3 cells",[2],0.065 nM
same,"IP [nM], inhibition of proliferation, OVCAR8 (engineered CDH6+) cells",[2],0.015 nM
same,"percent inhibition at 1.22 nM ADC, JHOS4 cells",[1],67.6%
same,"percent inhibition at 1.22 nM ADC, KNS42 cells",[1],56.8%
same,"percent inhibition at 1.22 nM ADC, NCIH661 cells",[1],32.5%
same,"percent inhibition at 1.22 nM ADC, OVCAR3 cells",[1],87.6%
same,"percent inhibition at 1.22 nM ADC, SNU8 cells",[1],31.4%
"NOV0712-SPDB-DM4 (antibody, human IgG1, kappa, V domains shown, SPDB-DM4 on primary amines, sites not stated) VH: QVQLLESGGGLVQPGGSLRLSCAASGFTFSSHGMHWVRQAPGKGLEWVSVISGSGSNTGYADSVKGRFTISRDNSKNTLYLQMNSLRAEDTAVYYCARQWGSYAFDSWGQGTLVTVSS VL: DIQMTQSPSSLSASVGDRVTITCRASQSISSYLNWYQQKPGKAPKLLIYAVSTLQSGVPSRFSGSGSGTDFTLTISSLQPEDFATYYCQQSGTFPPTTFGQGTKVEIKR","Amax (%), inhibition of proliferation, OVCAR3 cells",[2],88%
same,"Amax (%), inhibition of proliferation, OVCAR8 (engineered CDH6+) cells",[2],84%
same,"IP [nM], inhibition of proliferation, OVCAR3 cells",[2],0.008 nM
same,"IP [nM], inhibition of proliferation, OVCAR8 (engineered CDH6+) cells",[2],0.012 nM
"NOV0710-SPDB-DM4 (antibody, human IgG1, kappa, V domains shown, SPDB-DM4 on primary amines, sites not stated) VH: QVQLLESGGGLVQPGGSLRLSCAASGFTFSSYAMSWVRQAPGKGLEWVSVIRSSGSSTYYADSVKGRFTISRDNSKNTLYLQMNSLRAEDTAVYYCARGGGYFDYWGQGTLVTVSS VL: DIQMTQSPSSLSASVGDRVTITCRASQSISLWLNWYQQKPGKAPKLLIYAASTLQSGVPSRFSGSGSGTDFTLTISSLQPEDFATYYCQQYYTSPYTFGQGTKVEIKR","Amax (%), inhibition of proliferation, OVCAR3 cells",[2],88%
same,"Amax (%), inhibition of proliferation, OVCAR8 (engineered CDH6+) cells",[2],85%
same,"IP [nM], inhibition of proliferation, OVCAR3 cells",[2],0.01 nM
same,"IP [nM], inhibition of proliferation, OVCAR8 (engineered CDH6+) cells",[2],0.018 nM
"NOV0709-SMCC-DM1 (antibody, human IgG1, lambda, V domains shown, SMCC-DM1 on primary amines, sites not stated) VH: QVQLLESGGGLVQPGGSLRLSCAASGFTFSTYYMHWVRQAPGKGLEWVSVISSDGSFTFYADSVKGRFTISRDNSKNTLYLQMNSLRAEDTAVYYCARHGYGAFDYWGQGTLVTVSS VL: DIALTQPASVSGSPGQSITISCTGTSSDVGSYNYVSWYQQHPGKAPKLMIYYVSNRPSGVSNRFSGSKSGNTASLTISGLQAEDEADYYCASYTHQGSWVFGGGTKLTVLG","percent inhibition at 1.22 nM ADC, JHOS4 cells",[1],4.5%
same,"percent inhibition at 1.22 nM ADC, KNS42 cells",[1],-4.2%
same,"percent inhibition at 1.22 nM ADC, NCIH661 cells",[1],5.91%
same,"percent inhibition at 1.22 nM ADC, OVCAR3 cells",[1],46.9%
same,"percent inhibition at 1.22 nM ADC, SNU8 cells",[1],-7.7%
"NOV0692 (antibody, human IgG1, lambda, V domains shown) VH: QVQLVESGGGLVKPGGSLRLSCAASGFTFSRYWMDWVRQAPGKGLEWVGRIKSKANGGITDYAAPVKGRFTISRDDSKNTLYLQMNSLKTEDTAVYYCARGMTFLGIWGQGTLVTVSS VL: DIELTQPPSVSVSPGQTASITCSGDSIGSKYAQWYQQKPGQAPVLVIYYNSERPSGIPERFSGSNSGNTATLTISGTQAEDEADYYCQSWDGQSTIRVFGGGTKLTVLG",response of secondary antibody on primary antibody-CDH6 complex,[3],23.2
same,response of secondary antibody on primary antibody-CDH6 complex,[4],17.9
same,response of secondary antibody on primary antibody-CDH6 complex,[5],7.83
same,response of secondary antibody on primary antibody-CDH6 complex,[6],14.1
same,response of secondary antibody on primary antibody-CDH6 complex,[7],35.5
same,response of secondary antibody on primary antibody-CDH6 complex,[8],-2.84
"NOV0713-SMCC-DM1 (antibody, human IgG1, lambda, V domains shown, SMCC-DM1 on primary amines, sites not stated) VH: QVQLQQSGPGLVKPSQTLSLTCAISGDSVSSNSAAWNWIRQSPSRGLEWLGRIYYRSKWYNDYAVSVKSRITINPDTSKNQFSLQLNSVTPEDTAVYYCARGLVGRYGQPYHFDVWGQGTLVTVSS VL: DIELTQPPSVSVSPGQTASITCSGDNLRSYYVHWYQQKPGQAPVLVIYGNNKRPSGIPERFSGSNSGNTATLTISGTQAEDEADYYCGVYTLSSVVFGGGTKLTVLG","percent inhibition at 1.22 nM ADC, JHOS4 cells",[1],-6.22%
same,"percent inhibition at 1.22 nM ADC, KNS42 cells",[1],-17.3%
same,"percent inhibition at 1.22 nM ADC, NCIH661 cells",[1],-9.74%
same,"percent inhibition at 1.22 nM ADC, OVCAR3 cells",[1],-3.55%
same,"percent inhibition at 1.22 nM ADC, SNU8 cells",[1],7.79%
"NOV0719-SMCC-DM1 (antibody, human IgG1, kappa, V domains shown, SMCC-DM1 on primary amines, sites not stated) VH: QVQLLESGGGLVQPGGSLRLSCAASGFTFSSHWVHWVRQAPGKGLEWVSVISYMGSSTYYADSVKGRFTISRDNSKNTLYLQMNSLRAEDTAVYYCARGSYDMAFDVWGQGTLVTVSS VL: DIQMTQSPSSLSASVGDRVTITCRASQSIVSYLNWYQQKPGKAPKLLIYDASSLQSGVPSRFSGSGSGTDFTLTISSLQPEDFATYYCQQSGSHSITFGQGTKVEIKR","percent inhibition at 1.22 nM ADC, JHOS4 cells",[1],27.2%
same,"percent inhibition at 1.22 nM ADC, KNS42 cells",[1],41%
same,"percent inhibition at 1.22 nM ADC, NCIH661 cells",[1],-9.87%
same,"percent inhibition at 1.22 nM ADC, OVCAR3 cells",[1],76%
same,"percent inhibition at 1.22 nM ADC, SNU8 cells",[1],3.18%
"NOV0720-SMCC-DM1 (antibody, human IgG1, lambda, V domains shown, SMCC-DM1 on primary amines, sites not stated) VH: QVQLQQSGPGLVKPSQTLSLTCAISGDSVSSNSAGWNWIRQSPSRGLEWLGRIYYRSKWYNDYAVSVKSRITINPDTSKNQFSLQLNSVTPEDTAVYYCAREKYTVSFYDFFDYWGQGTLVTVSS VL: DIELTQPPSVSVSPGQTASITCSGDNIGSMTAHWYQQKPGQAPVLVIYDKNERPSGIPERFSGSNSGNTATLTISGTQAEDEADYYCQSWDDSYNSVVFGGGTKLTVLG","percent inhibition at 1.22 nM ADC, JHOS4 cells",[1],43.5%
same,"percent inhibition at 1.22 nM ADC, KNS42 cells",[1],57%
same,"percent inhibition at 1.22 nM ADC, NCIH661 cells",[1],1.94%
same,"percent inhibition at 1.22 nM ADC, OVCAR3 cells",[1],80.7%
same,"percent inhibition at 1.22 nM ADC, SNU8 cells",[1],3.56%
